Measurements taken from patent US11597752B2, “Peptides and combination of peptides and scaffolds thereof for use in immunotherapy against colorectal carcinoma (CRC) and other cancers” (priority 2015, dated 2023).

What follows are substances tested against HLA-A*02:01 (Homo sapiens, UniProt P04439, D140Y/D185E/D98H/E176V/E277Q/G131W/G231S/I119V/I121R/I166T/I218V/L300P/L318F/N151K/N90K/P208A/P217A/Q86G/Q94H/R138H/R169H/T345S) (assay: MHC binding assay (UV-ligand exchange, beta2m ELISA, peptide exchange yield)). Conditions: binding to HLA-A*02:01, β2m ELISA.
Excerpt: Candidate peptides for T cell based therapies according to the present invention were further tested for their MHC binding capacity (affinity). The individual peptide-MHC complexes were produced by UV-ligand exchange, where a UV-sensitive peptide is cleaved upon UV-irradiation, and exchanged with the peptide of interest as analyzed. Only peptide candidates that can effectively bind and stabilize the peptide-receptive MHC molecules prevent dissociation of the MHC complexes. To determine the yield of the exchange reaction, an ELISA was performed based on the detection of the light chain (β2m) of stabilized MHC complexes. The assay was performed as generally described in Rodenko et al. (Rodenko et al., 2006).
96 well MAXISorp plates (NUNC) were coated over night with 2 ug/ml streptavidin in PBS at room temperature, washed 4× and blocked for 1 h at 37° C. in 2% BSA containing blocking buffer. Refolded HLA-A*02:01/MLA-001 monomers served as standards, covering the range of 15-500 ng/ml. Peptide-MHC monomers of the UV-exchange reaction were diluted 100 fold in blocking buffer. Samples were incubated for 1 h at 37° C., washed four times, incubated with 2 ug/ml HRP conjugated anti-β2m for 1 h at 37° C., washed again and detected with TMB solution that is stopped with […]. Absorption was measured at 450 nm. Candidate peptides that show a high exchange yield (preferably higher than 50%, most preferred higher than 75%) are generally preferred for a generation and production of antibodies or fragments thereof, and/or T cell receptors or fragments thereof, as they show sufficient avidity to the MHC molecules and prevent dissociation of the MHC complexes.
With “103 (FLFGYPKRL; listed as Homo sapiens) [compound 103]” the “Peptide exchange (MHC class I binding score, peptide exchange yield)” value (“Peptide exchange” below) was ““++” (≥20% = ++)”. With “104 (ILLTIKDDTIYL; listed as Homo sapiens) [compound 104]” the “Peptide exchange” value was ““+++” (≥50 = +++)”. With “105 (YALDLSTFL; listed as Homo sapiens) [compound 105]” the “Peptide exchange” value was ““+++” (≥50 = +++)”. For “106 (SLISEKILL; listed as Homo sapiens) [compound 106]”, the “Peptide exchange” value was ““+++” (≥50 = +++)”. “107 (ALLGGGPYML; listed as Homo sapiens) [compound 107]” was tested, and the “Peptide exchange” value was ““+++” (≥50 = +++)”. In the case of “108 (SLAELVPGVGGI; listed as Homo sapiens) [compound 108]”, the “Peptide exchange” value was ““+++” (≥50 = +++)”. With “109 (ALDGDQMEL; listed as Homo sapiens) [compound 109]” the “Peptide exchange” value was ““++” (≥20% = ++)”. For “110 (LLGELPRLLLL; listed as Homo sapiens) [compound 110]”, the “Peptide exchange” value was ““+++” (≥50 = +++)”. With “112 (KLGQVLIYL; listed as Homo sapiens) [compound 112]” the “Peptide exchange” value was ““++” (≥20% = ++)”. “113 (ILYDLQQNL; listed as Homo sapiens) [compound 113]” was tested, and the “Peptide exchange” value was ““++” (≥20% = ++)”. In the case of “114 (TAVGHALVL; listed as Homo sapiens) [compound 114]”, the “Peptide exchange” value was ““+” (≥10% = +)”. “115 (SLFDVSHML; listed as Homo sapiens) [compound 115]” was tested, and the “Peptide exchange” value was ““+++” (≥50 = +++)”. “116 (LVYQFVHPI; listed as Homo sapiens) [compound 116]” was tested, and the “Peptide exchange” value was ““++” (≥20% = ++)”. For “117 (TLQPVDNSTISL; listed as Homo sapiens) [compound 117]”, the “Peptide exchange” value was ““++” (≥20% = ++)”. For “118 (LLADLKTMV; listed as Homo sapiens) [compound 118]”, the “Peptide exchange” value was ““+++” (≥50 = +++)”. For “119 (ILYQTVTGL; listed as Homo sapiens) [compound 119]”, the “Peptide exchange” value was ““++” (≥20% = ++)”. For “120 (VLYEGVDEV; listed as Homo sapiens) [compound 120]”, the “Peptide exchange” value was ““++” (≥20% = ++)”. With “121 (SLAPNIISQL; listed as Homo sapiens) [compound 121]” the “Peptide exchange” value was ““+++” (≥50 = +++)”. For “122 (SLMGMVLKL; listed as Homo sapiens) [compound 122]”, the “Peptide exchange” value was ““+++” (≥50 = +++)”. For “125 (KLGDFGLLVEL; listed as Homo sapiens) [compound 125]”, the “Peptide exchange” value was ““++++” (≥75% = ++++)”. With “126 (TLAKYLMEL; listed as Homo sapiens) [compound 126]” the “Peptide exchange” value was ““+++” (≥50 = +++)”. “128 (MLDDRAYLV; listed as Homo sapiens) [compound 128]” was tested, and the “Peptide exchange” value was ““++” (≥20% = ++)”. For “129 (VLIDVLKEL; listed as Homo sapiens) [compound 129]”, the “Peptide exchange” value was ““+++” (≥50 = +++)”. In the case of “130 (GLGGSQLIDTHL; listed as Homo sapiens) [compound 130]”, the “Peptide exchange” value was ““++” (≥20% = ++)”. With “131 (KLLDVVHPA; listed as Homo sapiens) [compound 131]” the “Peptide exchange” value was ““++” (≥20% = ++)”. For “134 (GVAGGSILKGV; listed as Homo sapiens) [compound 134]”, the “Peptide exchange” value was ““++++” (≥75% = ++++)”. “135 (KLQEEIPVL; listed as Homo sapiens) [compound 135]” was tested, and the “Peptide exchange” value was ““++” (≥20% = ++)”. “136 (KLFDIFSQQV; listed as Homo sapiens) [compound 136]” was tested, and the “Peptide exchange” value was ““+++” (≥50 = +++)”. With “137 (QLTEIKPLL; listed as Homo sapiens) [compound 137]” the “Peptide exchange” value was ““+++” (≥50 = +++)”. In the case of “138 (KQFEGTVEI; listed as Homo sapiens) [compound 138]”, the “Peptide exchange” value was ““+++” (≥50 = +++)”. For “139 (VLLNEILEQV; listed as Homo sapiens) [compound 139]”, the “Peptide exchange” value was ““+++” (≥50 = +++)”. With “140 (LLNEILEQV; listed as Homo sapiens) [compound 140]” the “Peptide exchange” value was ““+++” (≥50 = +++)”. With “143 (KLSDVWKEL; listed as Homo sapiens) [compound 143]” the “Peptide exchange” value was ““+++” (≥50 = +++)”. “144 (LLNDRIWLA; listed as Homo sapiens) [compound 144]” was tested, and the “Peptide exchange” value was ““+++” (≥50 = +++)”. With “145 (LLLEVVKQV; listed as Homo sapiens) [compound 145]” the “Peptide exchange” value was ““+++” (≥50 = +++)”. In the case of “146 (ALSDETWGL; listed as Homo sapiens) [compound 146]”, the “Peptide exchange” value was ““++” (≥20% = ++)”. With “147 (TLTELRAFL; listed as Homo sapiens) [compound 147]” the “Peptide exchange” value was ““++++” (≥75% = ++++)”. With “148 (RLLENMTEVV; listed as Homo sapiens) [compound 148]” the “Peptide exchange” value was ““+++” (≥50 = +++)”. For “149 (YQFDKVGILTL; listed as Homo sapiens) [compound 149]”, the “Peptide exchange” value was ““+++” (≥50 = +++)”. “151 (SAQGSDVSLTACKV; listed as Homo sapiens) [compound 151]” was tested, and the “Peptide exchange” value was ““+++” (≥50 = +++)”. With “152 (KLLAVIHEL; listed as Homo sapiens) [compound 152]” the “Peptide exchange” value was ““++” (≥20% = ++)”. “153 (ILFSEDSTKLFV; listed as Homo sapiens) [compound 153]” was tested, and the “Peptide exchange” value was ““+++” (≥50 = +++)”. “154 (KLPSETIFVGC; listed as Homo sapiens) [compound 154]” was tested, and the “Peptide exchange” value was ““+++” (≥50 = +++)”. “155 (RLLGEEVVRV; listed as Homo sapiens) [compound 155]” was tested, and the “Peptide exchange” value was ““+++” (≥50 = +++)”. “156 (SLMMTIINL; listed as Homo sapiens) [compound 156]” was tested, and the “Peptide exchange” value was ““++++” (≥75% = ++++)”. For “157 (SLIERDLKL; listed as Homo sapiens) [compound 157]”, the “Peptide exchange” value was ““+++” (≥50 = +++)”. “158 (GLLDPSVFHV; listed as Homo sapiens) [compound 158]” was tested, and the “Peptide exchange” value was ““+++” (≥50 = +++)”. For “159 (VLVDDDGIKVV; listed as Homo sapiens) [compound 159]”, the “Peptide exchange” value was ““++” (≥20% = ++)”. For “160 (KLLEFDQLQL; listed as Homo sapiens) [compound 160]”, the “Peptide exchange” value was ““+++” (≥50 = +++)”. In the case of “161 (FLKNELDNV; listed as Homo sapiens) [compound 161]”, the “Peptide exchange” value was ““+++” (≥50 = +++)”. In the case of “162 (KLMDYIDEL; listed as Homo sapiens) [compound 162]”, the “Peptide exchange” value was ““+++” (≥50 = +++)”. With “163 (RLLHEVQEL; listed as Homo sapiens) [compound 163]” the “Peptide exchange” value was ““+++” (≥50 = +++)”. For “164 (KMLDEILLQL; listed as Homo sapiens) [compound 164]”, the “Peptide exchange” value was ““++++” (≥75% = ++++)”. “165 (RLLDFPEAMVL; listed as Homo sapiens) [compound 165]” was tested, and the “Peptide exchange” value was ““++++” (≥75% = ++++)”. With “166 (GLLEARGILGL; listed as Homo sapiens) [compound 166]” the “Peptide exchange” value was ““+++” (≥50 = +++)”. With “167 (SVIDHIHLISV; listed as Homo sapiens) [compound 167]” the “Peptide exchange” value was ““+++” (≥50 = +++)”.
